Data set [1] concerns HeLa Kyoto. Nature of the data set: solubility change mitosis vs G1/S (difference of NP-40 vs SDS log2 ratios) (log2 ratio difference); higher = more soluble in mitosis.
Data set [2] deals with HeLa Kyoto. The data set can be described thus: solubility in G1/S (NP-40 vs SDS abundance) (log2 ratio); higher = more soluble. The following applies: cell cycle stage: G1/S.
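Wherever solubility change mitosis vs G1/S (difference of NP-40 vs SDS log2 ratios) is given: synchronized HeLa Kyoto cells (double thymidine block for G1/S, nocodazole release for mitosis), protein amounts in NP-40 versus SDS lysates quantified by mass spectrometry, three biological replicates.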
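Wherever solubility in G1/S (NP-40 vs SDS abundance) is given: HeLa Kyoto cells arrested at G1/S by double thymidine block, proteins quantified by TMT10plex mass spectrometry in mild NP-40 versus SDS extracts, three biological replicates.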

“MSSIKHLVYAVIRFLREQSQMDTYTSDEQESLEVAIQCLETVFKISPEDTHLAVSQPLTEMFTSSFCKNDVLPLSNSVPEDVGKADQLKDEGNNHMKEENYAAAVDCYTQAIELDPNNAVYYCNRAAAQSKLGHYTDAIKDCEKAIAIDSKYSKAYGRMGLALTALNKFEEAVTSYQKALDLDPENDSYKSNLKIAEQKLREVSSPTGTGLSFDMASLINNPAFISMAASLMQNPQVQQLMSGMMTNAIGGPAAGVGGLTDLSSLIQAGQQFAQQIQQQNPELIEQLRNHIRSRSFSSSAEEHS [SGTB]”: the “solubility change mitosis (log2)” value in data set [1] was 0.321. Further, the “solubility in G1/S (log2)” value in data set [2] was 0.092.
For “MSSRLGAVPATSGPTTFKQQRSTRIVGAKNSRTQCSIKDNSFQYTIPHDDSLSGSSSASSCEPVSDFPASFRKSTYWMKMRRIKPAATSHVEGSGGVSAKGKRKPRQEEDEDYREFPQKKHKLYGRKQRPKTQPNPKSQARRIRKEPPVYAAGSLEEQWYLEIVDKGSVSCPTCQAVGRKTIEGLKKHMENCKQEMFTCHHCGKQLRSLAGMKYHVMANHNSLPILKAGDEIDEPSERERLRTVLKRLGKLRCMRESCSSSFTSIMGYLYHVRKCGKGAAELEKMTLKCHHCGKPYRSKAGLAYHLRSEHGPISFFPESGQPECLKEMNLESKSGGRVQRRSAKIAVYHLQELASAELAKEWPKRKVLQDLVPDDRKLKYTRPGLPTFSQEVLHKWKTDIKKYHRIQCPNQGCEAVYSSVSGLKAHLGSCTLGNFVAGKYKCLLCQKEFVSESGVKYHINSVHAEDWFVVNPTTTKSFEKLMKIKQRQQEEEKRRQQHRSRRSLRRRQQPGIELPETELSLRVGKDQRRNNEELVVSASCKEPEQEPVPAQFQKVKPPKTNHKRGRK [ZNF512]”, the “solubility change mitosis (log2)” value in data set [1] is 1.4. Also, the “solubility in G1/S (log2)” value in data set [2] was -2.03.
The like results for “MSTFRQEDVEDHYEMGEELGSGQFAIVRKCRQKGTGKEYAAKFIKKRRLSSSRRGVSREEIEREVNILREIRHPNIITLHDIFENKTDVVLILELVSGGELFDFLAEKESLTEDEATQFLKQILDGVHYLHSKRIAHFDLKPENIMLLDKNVPNPRIKLIDFGIAHKIEAGNEFKNIFGTPEFVAPEIVNYEPLGLEADMWSIGVITYILLSGASPFLGETKQETLTNISAVNYDFDEEYFSNTSELAKDFIRRLLVKDPKRRMTIAQSLEHSWIKAIRRRNVRGEDSGRKPERRRLKTTRLKEYTIKSHSSLPPNNSYADFERFSKVLEEAAAAEEGLRELQRSRRLCHEDVEALAAIYEEKEAWYREESDSLGQDLRRLRQELLKTEALKRQAQEEAKGALLGTSGLKRRFSRLENRYEALAKQVASEMRFVQDLVRALEQEKLQGVECGLR [DAPK3]” were, in that order, -0.0326 and -0.721.
“MSTSSLRRQMKNIVHNYSEAEIKVREATSNDPWGPSSSLMSEIADLTYNVVAFSEIMSMIWKRLNDHGKNWRHVYKAMTLMEYLIKTGSERVSQQCKENMYAVQTLKDFQYVDRDGKDQGVNVREKAKQLVALLRDEDRLREERAHALKTKEKLAQTATASSAAVGSGPPPEAEQAWPQSSGEEELQLQLALAMSKEEADQPPSCGPEDDAQLQLALSLSREEHDKEERIRRGDDLRLQMAIEESKRETGGKEESSLMDLADVFTAPAPAPTTDPWGGPAPMAAAVPTAAPTSDPWGGPPVPPAADPWGGPAPTPASGDPWRPAAPAGPSVDPWGGTPAPAAGEGPTPDPWGSSDGGVPVSGPSASDPWTPAPAFSDPWGGSPAKPSTNGTTAAGGFDTEPDEFSDFDRLRTALPTSGSSAGELELLAGEVPARSPGAFDMSGVRGSLAEAVGSPPPAATPTPTPPTRKTPESFLGPNAALVDLDSLVSRPGPTPPGAKASNPFLPGGGPATGPSVTNPFQPAPPATLTLNQLRLSPVPPVPGAPPTYISPLGGGPGLPPMMPPGPPAPNTNPFLL [EPN1]”: the “solubility change mitosis (log2)” value in data set [1] came to 0.235. In addition, the “solubility in G1/S (log2)” value in data set [2] was 0.197.
On to “MSVDPMTYEAQFFGFTPQTCMLRIYIAFQDYLFEVMQAVEQVILKKLDGIPDCDISPVQIRKCTEKFLCFMKGHFDNLFSKMEQLFLQLILRIPSNILLPEDKCKETPYSEEDFQHLQKEIEQLQEKYKTELCTKQALLAELEEQKIVQAKLKQTLTFFDELHNVGRDHGTSDFRESLVSLVQNSRKLQNIRDNVEKESKRLKIS [MIS12]”, for which the “solubility change mitosis (log2)” value in data set [1] is 0.259. In data set [2], the “solubility in G1/S (log2)” value was -0.177.
“MSVTEEDLCHHMKVVVRVRPENTKEKAAGFHKVVHVVDKHILVFDPKQEEVSFFHGKKTTNQNVIKKQNKDLKFVFDAVFDETSTQSEVFEHTTKPILRSFLNGYNCTVLAYGATGAGKTHTMLGSADEPGVMYLTMLHLYKCMDEIKEEKICSTAVSYLEVYNEQIRDLLVNSGPLAVREDTQKGVVVHGLTLHQPKSSEEILHLLDNGNKNRTQHPTDMNATSSRSHAVFQIYLRQQDKTASINQNVRIAKMSLIDLAGSERASTSGAKGTRFVEGTNINRSLLALGNVINALADSKRKNQHIPYRNSKLTRLLKDSLGGNCQTIMIAAVSPSSVFYDDTYNTLKYANRAKDIKSSLKSNVLNVNNHITQYVKICNEQKAEILLLKEKLKAYEEQKAFTNENDQAKLMISNPQEKEIERFQEILNCLFQNREEIRQEYLKLEMLLKENELKSFYQQQCHKQIEMMCSEDKVEKATGKRDHRLAMLKTRRSYLEKRREEELKQFDENTNWLHRVEKEMGLLSQNGHIPKELKKDLHCHHLHLQNKDLKAQIRHMMDLACLQEQQHRQTEAVLNALLPTLRKQYCTLKEAGLSNAAFESDFKEIEHLVERKKVVVWADQTAEQPKQNDLPGISVLMTFPQLGPVQPIPCCSSSGGTNLVKIPTEKRTRRKLMPSPLKGQHTLKSPPSQSVQLNDSLSKELQPIVYTPEDCRKAFQNPSTVTLMKPSSFTTSFQAISSNINSDNCLKMLCEVAIPHNRRKECGQEDLDSTFTICEDIKSSKCKLPEQESLPNDNKDILQRLDPSSFSTKHSMPVPSMVPSYMAMTTAAKRKRKLTSSTSNSSLTADVNSGFAKRVRQDNSSEKHLQENKPTMEHKRNICKINPSMVRKFGRNISKGNLR [KIF18A]”: the “solubility change mitosis (log2)” value in data set [1] was -0.237. For the same sequence, in data set [2], the “solubility in G1/S (log2)” value was -0.624.
“MSYCRQEGKDRIIFVTKEDHETPSSAELVADDPNDPYEEHGLILPNGNINWNCPCLGGMASGPCGEQFKSAFSCFHYSTEEIKGSDCVDQFRAMQECMQKYPDLYPQEDEDEEEEREKKPAEQAEETAPIEATATKEEEGSS [CHCHD4]”: the “solubility change mitosis (log2)” value in data set [1] was -0.667. The “solubility in G1/S (log2)” value in data set [2] was -0.518.
“MSYMLPHLHNGWQVDQAILSEEDRVVVIRFGHDWDPTCMKMDEVLYSIAEKVKNFAVIYLVDITEVPDFNKMYELYDPCTVMFFFRNKHIMIDLGTGNNNKINWAMEDKQEMVDIIETVYRGARKGRGLVVSPKDYSTKYRY [TXNL4A]”: in data set [1], the “solubility change mitosis (log2)” value amounted to 0.224. Also, in data set [2], the “solubility in G1/S (log2)” value was -0.625.
Regarding “MTFQFNFTIEDHLENELTPIRDGALTLDSSKELSVSESQKGEERDRKCSAEQFDLPQDHLWEHKSMENAAPSQDTDSPLSAASSSRNLEPHGKQPSLRAAKEHAMPKDLKKMLENKVIETLPGFQHVKLSVVKTILLKENFPGENIVSKSFSSHSDLITGVYEGGLKIWECTFDLLAYFTKAKVKFAGKKVLDLGCGSGLLGITAFKGGSKEIHFQDYNSMVIDEVTLPNVVANSTLEDEENDVNEPDVKRCRKPKVTQLYKCRFFSGEWSEFCKLVLSSEKLFVKYDLILTSETIYNPDYYSNLHQTFLRLLSKNGRVLLASKAHYFGVGGGVHLFQKFVEERDVFKTRILKIIDEGLKRFIIEITFKFPG [METTL18]”, in data set [1], the “solubility change mitosis (log2)” value was 0.0132. The “solubility in G1/S (log2)” value in data set [2] is -0.31.
The like results for “MTQQPQDDFDRSVEDAQAWMKAVQDQLQVNDNTQGPRAALEARLWETEKICQLEPEGRVRVDLVLRMAEALLACCPGDQKPGILARLKDIKAQWEETVTYMTHCHSRIEWVWLHWSEYLLARDEFYRWFQKMMVTLEPHIELQLGLKEKQWQLSHAQVLLHNVDNQAVLLDRLLEEAASLFNRIGDPSVDEDAQKRMKAEYDAVKAKAQKRVDLLEQVAREHEEYQAGVDEFQLWLKAVVEKVNGCLGRNCKLPITQRLSTLQDIAKDFPRGEESLETLEEQSAGVIRNTSPLGAEKITGELEEMRKVLEKLRALWEEEEERLRGLLRSRGAWEQQIKQLEAELSEFRMVLQRLAQEGLQPAAKAGTEDELVAHWRRYSATRAALASEEPRVDRLQAQLKELIVFPHNLKPLSDSVIATIQEYQSLKVKSARLRNAAAVELWQHFQRPLQDLQLWKALAQRLLEVTASLPDLPSLHTFLPQIEAALMESSRLKELLTMLQLKKDLLIGIFGQERATALLEQVAGSMRDRDLLHNSLLQRKSKLQSLLAQHKDFGAAFEPLQRKLLDLQVRVQAEKGLQRDLPGKQAQLSRLQGLQEEGLDLGAQMEAARPLVQENPNHQHKMDQLSSDFQALQRSLEDLVDRCRQSVQEHCTFSHQLLELRQWIVVTTQKLEAHRGEAGPGDAESQEAEFERLVAEFPEKEAQLSLVEAQGWLVMEKSSPEGAAVVQEELRELAESWRALRLLEESLLSLIRNWHLQRMEVDSGKKMVFTNNIPKSGFLINPMDPIPRHRRRANLLQEEEGSHEDFSQLLRNFGQWLQVENSKLVRIIAMRTSTAEDLRTRKSKLQELEARVPEGQHLFENLLRLGPARGTSDELEDLRYQWMLYKSKLKDSGHLLTQSSPGEPTGFQKTRRWRGLGSLFRRACCVALPLQLLLLLFLLLLFLLPIREEDRSCTLANNFARSFTLMLRYNGPPPT [SYNE3]” were, in that order, 0.336 and -0.89.
Consider “MTYAYLFKYIIIGDTGVGKSCLLLQFTDKRFQPVHDLTIGVEFGARMVNIDGKQIKLQIWDTAGQESFRSITRSYYRGAAGALLVYDITRRETFNHLTSWLEDARQHSSSNMVIMLIGNKSDLESRRDVKREEGEAFAREHGLIFMETSAKTACNVEEAFINTAKEIYRKIQQGLFDVHNEANGIKIGPQQSISTSVGPSASQRNSRDIGSNSGCC [RAB2B]”, for which the “solubility change mitosis (log2)” value in data set [1] was -0.115. For the same sequence, the “solubility in G1/S (log2)” value in data set [2] is -0.221.
Consider “MVAMAEAEAGVAVEVRGLPPAVPDELLTLYFENRRRSGGGPVLSWQRLGCGGVLTFREPADAERVLAQADHELHGAQLSLRPAPPRAPARLLLQGLPPGTTPQRLEQHVQALLRASGLPVQPCCALASPRPDRALVQLPKPLSEADVRVLEEQAQNLGLEGTLVSLARVPQARAVRVVGDGASVDLLLLELYLENERRSGGGPLEDLQRLPGPLGTVASFQQWQVAERVLQQEHRLQGSELSLVPHYDILEPEELAENTSGGDHPSTQGPRATKHALLRTGGLVTALQGAGTVTMGSGEEPGQSGASLRTGPMVQGRGIMTTGSGQEPGQSGTSLRTGPMGSLGQAEQVSSMPMGSLEHEGLVSLRPVGLQEQEGPMSLGPVGSAGPVETSKGLLGQEGLVEIAMDSPEQEGLVGPMEITMGSLEKAGPVSPGCVKLAGQEGLVEMVLLMEPGAMRFLQLYHEDLLAGLGDVALLPLEGPDMTGFRLCGAQASCQAAEEFLRSLLGSISCHVLCLEHPGSARFLLGPEGQHLLQGLEAQFQCVFGTERLATATLDTGLEEVDPTEALPVLPGNAHTLWTPDSTGGDQEDVSLEEVRELLATLEGLDLDGEDWLPRELEEEGPQEQPEEEVTPGHEEEEPVAPSTVAPRWLEEEAALQLALHRSLEPQGQVAEQEEAAALRQALTLSLLEQPPLEAEEPPDGGTDGKAQLVVHSAFEQDVEELDRALRAALEVHVQEETVGPWRRTLPAELRARLERCHGVSVALRGDCTILRGFGAHPARAARHLVALLAGPWDQSLAFPLAASGPTLAGQTLKGPWNNLERLAENTGEFQEVVRAFYDTLDAARSSIRVVRVERVSHPLLQQQYELYRERLLQRCERRPVEQVLYHGTTAPAVPDICAHGFNRSFCGRNATVYGKGVYFARRASLSVQDRYSPPNADGHKAVFVARVLTGDYGQGRRGLRAPPLRGPGHVLLRYDSAVDCICQPSIFVIFHDTQALPTHLITCEHVPRASPDDPSGLPGRSPDT [PARP10]”, for which the “solubility change mitosis (log2)” value in data set [1] was 0.0134. Further, in data set [2], the “solubility in G1/S (log2)” value came out at 0.14.
